# Laboratory results: patent publication US8178091B2, “Compositions and methods for the treatment of respiratory disorders” (University of Washington, priority 2007, dated 2012)
# “Also recorded” adds a separate entry of the source.
# Legend:
# IGF-1R [1] = conditions: murine and human tissues; cited from earlier work
# IGF-1R [2] = molecular target: T1, IGF-1R (Mus musculus, UniProt Q60751); experiment: IGF-1R expression in tissues after systemic A12 (IHC, Western blot); assay type: in vivo, mice
# T1 construct: Western blot analysis for IGF-1R on lungs and spleen lysates at day 14 post-bleomycin; from tissue; host or cells: mouse lung, spleen, kidney
# Experimental: ICR male mice are anesthetized under pentobarbital (60 mg/kg, i.v.) anesthesia, the cervical region is shaved and the skin is incised for about 4 mm from under the larynx region along the median line. Next, the muscle layer covering upper trachea is peeled off to expose the trachea. Using a micro-syringe, physiological saline or bleomycin hydrochloride (0.03 mg/animal, manufactured by Nippon Kayaku) is administered tracheally (50 μl/animal) from the tracheal smooth muscle region between cricoid cartilage. After the administration, the incised region is closed and antibiotics are administered into the thigh intramuscularly in order to prevent infection. IGF-1R inhibitor, e.g., antibody to IGF-1 receptor (A12). The A12 antibody was administered intraperitoneally at the time of bleomycin administration and subsequently 2-3× per week at a dose of 40 mg/kg (initial experiments involved dosing 3× per week, and later experiments dosed 2× per week; results were the same). […] Controls included bleomycin-treated animals receiving saline injection in place of A12 antibody. […] Lung hydroxyproline content is measured as a measure of fibrosis. Changes in lung tissue histology are also monitored. […] Bronchoalveolar lavage fluid (BALF) total cell count was determined by trypan blue exclusion and cell differential was determined on Diff quick (Dade Behring Ag, Düdingen, Switzerland) stained cytospins. […]
# [3] = test system: primary normal human lung fibroblasts; experiment: apoptosis assay (Cell Death Detection ELISA-plus), lung fibroblasts; assay type: cell-based; conditions: serum starvation, increasing concentrations; listed as IGF-1R antibody
# Experimental: A: Normal human lung fibroblast or distal lung epithelial cells were serum-starved overnight and then incubated with indicated concentration of IGF-1R antibody or IGFBP-3 overnight. B: A549 cells were serum-starved and incubated with IGF-1R antibody (136 μg/ml) with or without the indicated concentration of Fas ligand. Apoptosis was measured by Cell Death ELISA-plus ELISA (Roche Applied Science) per the manufacturer's directions. All experiments were done in triplicate and repeated at least twice. Apoptosis index is defined as the ratio of experimental condition OD405 nm: control (media alone) OD405 nm.
# Primary normal human lung fibroblasts (Clonetics, Cambrex Bioscience, Rockland, Me.), primary distal lung human epithelial cells (Clonetics) or A549 (American Type Culture Collection, Manassas, Va.) were seeded in a 96-well tissue culture plate (2×10^4 cells/well) overnight and serum-starved for 24 hours. […] After 48 hours, apoptosis was measured. To prevent detached cells from being aspirated, plates were centrifuged at 200×g for 10 minutes, and apoptosis was measured using the Cell Death Detection ELISA-plus System (Roche Applied Science, Penzberg, Germany), which detects cytosolic histone-complexed DNA fragments. […]
# insulin receptor (IR) = insulin receptor (IR) (Homo sapiens, UniProt P06213); conditions: cited from earlier work
# T1 sequence (Q60751 31-1373): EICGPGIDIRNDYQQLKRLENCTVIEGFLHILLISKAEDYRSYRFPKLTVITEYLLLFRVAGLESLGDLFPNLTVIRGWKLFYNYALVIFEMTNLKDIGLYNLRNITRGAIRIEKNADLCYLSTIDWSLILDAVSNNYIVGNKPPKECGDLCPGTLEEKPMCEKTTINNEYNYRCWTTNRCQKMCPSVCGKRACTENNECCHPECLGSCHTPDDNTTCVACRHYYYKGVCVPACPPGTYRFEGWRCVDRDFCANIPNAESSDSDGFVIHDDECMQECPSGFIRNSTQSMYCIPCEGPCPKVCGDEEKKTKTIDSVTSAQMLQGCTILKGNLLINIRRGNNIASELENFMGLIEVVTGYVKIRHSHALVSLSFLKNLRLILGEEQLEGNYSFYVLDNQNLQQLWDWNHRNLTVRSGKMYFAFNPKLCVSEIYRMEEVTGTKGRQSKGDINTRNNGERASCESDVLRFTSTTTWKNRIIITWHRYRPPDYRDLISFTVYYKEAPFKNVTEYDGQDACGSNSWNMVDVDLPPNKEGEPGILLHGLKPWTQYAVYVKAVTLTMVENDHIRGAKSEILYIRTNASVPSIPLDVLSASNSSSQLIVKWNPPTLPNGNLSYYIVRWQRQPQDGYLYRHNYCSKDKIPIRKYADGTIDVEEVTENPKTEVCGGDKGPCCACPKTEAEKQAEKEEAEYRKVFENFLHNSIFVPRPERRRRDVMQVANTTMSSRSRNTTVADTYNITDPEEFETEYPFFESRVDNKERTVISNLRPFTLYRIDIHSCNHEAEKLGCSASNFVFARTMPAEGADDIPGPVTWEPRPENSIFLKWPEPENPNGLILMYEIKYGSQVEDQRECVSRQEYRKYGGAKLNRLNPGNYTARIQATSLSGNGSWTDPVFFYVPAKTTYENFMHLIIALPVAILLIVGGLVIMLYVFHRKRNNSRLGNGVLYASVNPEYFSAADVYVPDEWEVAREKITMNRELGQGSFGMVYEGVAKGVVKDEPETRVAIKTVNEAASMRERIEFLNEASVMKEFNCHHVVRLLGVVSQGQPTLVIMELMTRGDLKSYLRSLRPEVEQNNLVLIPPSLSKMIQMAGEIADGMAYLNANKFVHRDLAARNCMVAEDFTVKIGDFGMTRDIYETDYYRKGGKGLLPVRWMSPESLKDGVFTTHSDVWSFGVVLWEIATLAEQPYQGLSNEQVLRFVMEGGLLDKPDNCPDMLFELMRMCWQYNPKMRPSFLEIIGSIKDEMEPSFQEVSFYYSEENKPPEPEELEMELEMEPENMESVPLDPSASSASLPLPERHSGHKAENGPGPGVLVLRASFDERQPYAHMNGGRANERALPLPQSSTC
substance,measurement,setting,value
"A12: Function blocking antibody to the human type 1 IGF receptor, gift from ImClone Systems",IGF-1R signaling,IGF-1R [1],inhibits IGF-1R signaling
same,IGF-1R expression in lungs,"IGF-1R [2]; day 7 post-bleomycin, vs saline",marked decrease in IGF-1R expression; also recorded: decreased IGF-1R expression
same,IGF-1R in the kidney (Western blotting),IGF-1R [2]; systemic effect of antibody,down-regulation of IGF-1R in the kidney
same,apoptosis of primary human lung fibroblasts,[3],dose-dependent increase in apoptosis; also recorded: increased apoptosis
same,cross-reaction with insulin receptor,insulin receptor (IR),does not cross-react
